Results as given in PMC10579713, “Melatonin enhances KCl salinity tolerance by maintaining K+ homeostasis in Malus hupehensis”.

T1: MdWRKY53 (Malus hupehensis (CDS amplified from; …, UniProt A0A498JJJ9 1-351)
T1 sequence: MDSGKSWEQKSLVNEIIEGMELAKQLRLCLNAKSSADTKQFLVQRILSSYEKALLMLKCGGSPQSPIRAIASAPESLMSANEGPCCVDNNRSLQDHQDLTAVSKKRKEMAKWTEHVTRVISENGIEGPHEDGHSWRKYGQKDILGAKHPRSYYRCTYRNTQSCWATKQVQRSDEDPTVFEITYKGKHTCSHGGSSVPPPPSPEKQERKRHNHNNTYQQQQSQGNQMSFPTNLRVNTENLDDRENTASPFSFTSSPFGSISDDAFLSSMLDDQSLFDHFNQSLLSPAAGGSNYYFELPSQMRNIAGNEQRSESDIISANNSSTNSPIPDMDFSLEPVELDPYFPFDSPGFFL


Molecular target: T1, MdWRKY53
Experiment: EMSA; unlabeled competitor reduced the binding; LightShift chemiluminescence EMSA kit (Thermo), manufacturer's instructions; buffer, salt, pH and temperature not stated
Settings: protein: recombinant; tags: GST (N-terminal, pGEX6p-1); blunt

Binder | binding result
MdGORK1 promoter W-box probe (dsDNA) DNA 1: TTATGTCACCTTATGTTTTTGACACAATTTTTATAACGTTGACACAG DNA 2: CTGTGTCAACGTTATAAAAATTGTGTCAAAAACATAAGGTGACATAA | binds
MdNHX2 promoter W-box probe (dsDNA) DNA 1: TGCACACGTCTTTCGAAGTTGACCAGATCAGTGTGCTTTGA DNA 2: TCAAAGCACACTGATCTGGTCAACTTCGAAAGACGTGTGCA | binds
